Measurements reported in publication doi:10.1101/2025.08.17.670156 (bioRxiv, 2025).
Numbering of substitutions follows the chain as printed. In names and notes the source's numbering stands.

B1: double plant homeodomain fingers 3a (DPF3 isoform a), wild type (natural protein, human, UniProt Q92784-2 1-357, looked up)
chain: MATVIHNPLKALGDQFYKEAIEHCRSYNSRLCAERSVRLPFLDSQTGVAQNNCYIWMEKRHRGPGLAPGQLYTYPARCWRKKRRLHPPEDPKLRLLEIKPEVELPLKKDGFTSESTTLEALLRGEGVEKKVDAREEESIQEIQRVLENDENVEEGNEEEDLEEDIPKRKNRTRGRARGSAGGRRRHDAASQEDHDKPYVCDICGKRYKNRPGLSYHYAHTHLASEEGDEAQDQETRSPPNHRNENHRPQKGPDGTVIPNNYCDFCLGGSNMNKKSGRPEELVSCADCGRSAHLGGEGRKEKEAAAAARTTEDLFGSTSESDTSTFHGFDEDDLEEPRSCRGRRSGRGSPTADKKGSC
B2: DPF3a phosphomimetic S348E (natural protein, human, UniProt Q92784-2 1-357, looked up)
chain: B1 chain with S348E
B3: DPF3a phosphomimetic S138E (natural protein, human, UniProt Q92784-2 1-357, looked up)
chain: B1 chain with S138E

Target: the molecule itself
Assay: deep-blue autofluorescence of amyloid fibrils

Binding result, binds:
B1
B2
B3
